PMC11264237 (Archives of biochemistry and biophysics, 2024)

T1: GST fused to the ATP8A1 tail (amino acids 1049-1163) (human, UniProt Q9Y2Q0 1049-1163)
T1 sequence (looked up): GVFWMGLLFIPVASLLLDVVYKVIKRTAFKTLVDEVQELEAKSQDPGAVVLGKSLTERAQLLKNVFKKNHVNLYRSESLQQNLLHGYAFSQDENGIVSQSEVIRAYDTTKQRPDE

B1: BIG1 (natural protein, human (endogenous in HeLa), UniProt Q9Y6D6 1-1849, looked up)
chain: MYEGKKTKNMFLTRALEKILADKEVKKAHHSQLRKACEVALEEIKAETEKQSPPHGEAKAGSSTLPPVKSKTNFIEADKYFLPFELACQSKCPRIVSTSLDCLQKLIAYGHLTGNAPDSTTPGKKLIDRIIETICGCFQGPQTDEGVQLQIIKALLTAVTSQHIEIHEGTVLQAVRTCYNIYLASKNLINQTTAKATLTQMLNVIFARMENQALQEAKQMEKERHRQHHHLLQSPVSHHEPESPQLRYLPPQTVDHISQEHEGDLDLHTNDVDKSLQDDTEPENGSDISSAENEQTEADQATAAETLSKNEVLYDGENHDCEEKPQDIVQNIVEEMVNIVVGDMGEGTTINASADGNIGTIEDGSDSENIQANGIPGTPISVAYTPSLPDDRLSVSSNDTQESGNSSGPSPGAKFSHILQKDAFLVFRSLCKLSMKPLSDGPPDPKSHELRSKILSLQLLLSILQNAGPIFRTNEMFINAIKQYLCVALSKNGVSSVPEVFELSLSIFLTLLSNFKTHLKMQIEVFFKEIFLYILETSTSSFDHKWMVIQTLTRICADAQSVVDIYVNYDCDLNAANIFERLVNDLSKIAQGRGSQELGMSNVQELSLRKKGLECLVSILKCMVEWSKDQYVNPNSQTTLGQEKPSEQEMSEIKHPETINRYGSLNSLESTSSSGIGSYSTQMSGTDNPEQFEVLKQQKEIIEQGIDLFNKKPKRGIQYLQEQGMLGTTPEDIAQFLHQEERLDSTQVGEFLGDNDKFNKEVMYAYVDQHDFSGKDFVSALRMFLEGFRLPGEAQKIDRLMEKFAARYLECNQGQTLFASADTAYVLAYSIIMLTTDLHSPQVKNKMTKEQYIKMNRGINDSKDLPEEYLSAIYNEIAGKKISMKETKELTIPTKSSKQNVASEKQRRLLYNLEMEQMAKTAKALMEAVSHVQAPFTSATHLEHVRPMFKLAWTPFLAAFSVGLQDCDDTEVASLCLEGIRCAIRIACIFSIQLERDAYVQALARFTLLTVSSGITEMKQKNIDTIKTLITVAHTDGNYLGNSWHEILKCISQLELAQLIGTGVKPRYISGTVRGREGSLTGTKDQAPDEFVGLGLVGGNVDWKQIASIQESIGETSSQSVVVAVDRIFTGSTRLDGNAIVDFVRWLCAVSMDELLSTTHPRMFSLQKIVEISYYNMGRIRLQWSRIWEVIGDHFNKVGCNPNEDVAIFAVDSLRQLSMKFLEKGELANFRFQKDFLRPFEHIMKRNRSPTIRDMVVRCIAQMVNSQAANIRSGWKNIFSVFHLAASDQDESIVELAFQTTGHIVTLVFEKHFPATIDSFQDAVKCLSEFACNAAFPDTSMEAIRLIRHCAKYVSDRPQAFKEYTSDDMNVAPEDRVWVRGWFPILFELSCIINRCKLDVRTRGLTVMFEIMKTYGHTYEKHWWQDLFRIVFRIFDNMKLPEQQTEKAEWMTTTCNHALYAICDVFTQYLEVLSDVLLDDIFAQLYWCVQQDNEQLARSGTNCLENVVILNGEKFTLEIWDKTCNCTLDIFKTTIPHALLTWRPNSGETAPPPPSPVSEKPLDTISQKSVDIHDSIQPRSVDNRPQAPLVSASAVNEEVSKIKSTAKFPEQKLFAALLIKCVVQLELIQTIDNIVFFPATSKKEDAENLAAAQRDAVDFDVRVDTQDQGMYRFLTSQQLFKLLDCLLESHRFAKAFNSNNEQRTALWKAGFKGKSKPNLLKQETSSLACGLRILFRMYMDESRVSAWEEVQQRLLNVCSEALSYFLTLTSESHREAWTNLLLLFLTKVLKISDNRFKAHASFYYPLLCEIMQFDLIPELRAVLRRFFLRIGVVFQISQPPEQELGINKQ
B2: BIG2 (natural protein, human (endogenous in HeLa), UniProt Q9Y6D5 1-1785, looked up)
chain: MQESQTKSMFVSRALEKILADKEVKRPQHSQLRRACQVALDEIKAEIEKQRLGTAAPPKANFIEADKYFLPFELACQSKSPRVVSTSLDCLQKLIAYGHITGNAPDSGAPGKRLIDRIVETICSCFQGPQTDEGVQLQIIKALLTAVTSPHIEIHEGTILQTVRTCYNIYLASKNLINQTTAKATLTQMLNVIFTRMENQVLQEARELEKPIQSKPQSPVIQAAAVSPKFVRLKHSQAQSKPTTPEKTDLTNGEHARSDSGKVSTENGDAPRERGSSLSGTDDGAQEVVKDILEDVVTSAIKEAAEKHGLTEPERVLGELECQECAIPPGVDENSQTNGIADDRQSLSSADNLESDAQGHQVAARFSHVLQKDAFLVFRSLCKLSMKPLGEGPPDPKSHELRSKVVSLQLLLSVLQNAGPVFRTHEMFINAIKQYLCVALSKNGVSSVPDVFELSLAIFLTLLSNFKMHLKMQIEVFFKEIFLNILETSTSSFEHRWMVIQTLTRICADAQCVVDIYVNYDCDLNAANIFERLVNDLSKIAQGRSGHELGMTPLQELSLRKKGLECLVSILKCMVEWSKDLYVNPNHQTSLGQERLTDQEIGDGKGLDMARRCSVTSMESTVSSGTQTTVQDDPEQFEVIKQQKEIIEHGIELFNKKPKRGIQFLQEQGMLGTSVEDIAQFLHQEERLDSTQVGDFLGDSARFNKEVMYAYVDQLDFCEKEFVSALRTFLEGFRLPGEAQKIDRLMEKFAARYIECNQGQTLFASADTAYVLAYSIIMLTTDLHSPQVKNKMTKEQYIKMNRGINDSKDLPEEYLSSIYEEIEGKKIAMKETKELTIATKSTKQNVASEKQRRLLYNLEMEQMAKTAKALMEAVSHAKAPFTSATHLDHVRPMFKLVWTPLLAAYSIGLQNCDDTEVASLCLEGIRCAIRIACIFGMQLERDAYVQALARFSLLTASSSITEMKQKNIDTIKTLITVAHTDGNYLGNSWHEILKCISQLELAQLIGTGVKTRYLSGSGREREGSLKGHTLAGEEFMGLGLGNLVSGGVDKRQMASFQESVGETSSQSVVVAVDRIFTGSTRLDGNAIVDFVRWLCAVSMDELASPHHPRMFSLQKIVEISYYNMNRIRLQWSRIWHVIGDHFNKVGCNPNEDVAIFAVDSLRQLSMKFLEKGELANFRFQKDFLRPFEHIMKKNRSPTIRDMAIRCIAQMVNSQAANIRSGWKNIFAVFHQAASDHDGNIVELAFQTTCHIVTTIFQHHFPAAIDSFQDAVKCLSEFACNAAFPDTSMEAIRLIRFCGKYVSERPRVLQEYTSDDMNVAPGDRVWVRGWFPILFELSCIINRCKLDVRTRGLTVMFEIMKSYGHTFEKHWWQDLFRIVFRIFDNMKLPEQLSEKSEWMTTTCNHALYAICDVFTQFYEALNEVLLSDVFAQLQWCVKQDNEQLARSGTNCLENLVISNGEKFSPEVWDETCNCMLDIFKTTIPHVLLTWRPVGMEEDSSEKHLDVDLDRQSLSSIDKNPSERGQSQLSNPTDDSWKGRPYANQKLFASLLIKCVVQLELIQTIDNIVFYPATSKKEDAEHMVAAQQDTLDADIHIETEDQGMYKYMSSQHLFKLLDCLQESHSFSKAFNSNYEQRTVLWRAGFKGKSKPNLLKQETSSLACCLRILFRMYVDENRRDSWEEIQQRLLTVCSEALAYFITVNSESHREAWTSLLLLLLTKTLKINDEKFKAHASMYYPYLCEIMQFDLIPELRAVLRKFFLRIGVVYKIWIPEEPSQVPAALSPVW

Target: T1, GST fused to the ATP8A1 tail (amino …)
Assay: pull-down

Row | Binder | % of total input bound to the beads
1 | B1 | 24 % of total input
2 | B2 | 18.5 % of total input
